Measurements from patent US20220119534A1 (DRAGONFLY THERAPEUTICS, published 2022).

T1: human CLEC12A on cells (HL60, PL21, Ba/F3-hCLEC12A) (human, UniProt Q5QGZ9 1-265)
T1 construct: Endogenous on the AML lines HL60 and PL21; brought into mouse Ba/F3 cells by retroviral transduction; The cell line stands under assay; also called CLL-1
T1 sequence: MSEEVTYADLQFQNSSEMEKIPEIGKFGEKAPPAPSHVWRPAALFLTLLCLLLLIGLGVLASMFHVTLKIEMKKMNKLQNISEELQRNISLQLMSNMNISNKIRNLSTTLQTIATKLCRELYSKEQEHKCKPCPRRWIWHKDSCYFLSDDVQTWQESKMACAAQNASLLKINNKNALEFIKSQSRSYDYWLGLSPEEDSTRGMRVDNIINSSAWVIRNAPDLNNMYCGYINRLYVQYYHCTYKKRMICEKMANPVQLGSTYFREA

T2: recombinant human CLEC12A-His (human, UniProt Q5QGZ9 65-265)
T2 construct: also called hCLEC12A-His; hCLEC12A
T2 sequence: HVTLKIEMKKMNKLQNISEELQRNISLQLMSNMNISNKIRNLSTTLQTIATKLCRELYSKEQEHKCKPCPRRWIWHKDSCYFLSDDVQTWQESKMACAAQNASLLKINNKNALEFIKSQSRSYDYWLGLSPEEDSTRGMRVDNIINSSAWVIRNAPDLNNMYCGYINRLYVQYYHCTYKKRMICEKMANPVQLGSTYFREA


How the values were obtained:
[1] = biological target: T1, human CLEC12A on cells (HL60, PL21, …); assay: flow cytometry, PL21 cells
[2] = biological target: T1, human CLEC12A on cells (HL60, PL21, …); assay: flow cytometry, HL60 cells
Procedure: (§1) 100,000 cells were seeded per well into a 96-well plate for FACS staining. Cells were washed with PBS. Cells were incubated in a 1:2000 dilution of live/dead dye in PBS for 15 minutes, then washed with FACS buffer. TriNKETs or mAbs were diluted into FACS buffer, and 50 μl containing diluted TriNKET or mAb was added to cells. Cells were incubated on ice for 20 minutes. After the incubation, cells were washed with FACS buffer. Anti-human IgG-Fc secondary antibody was diluted into FACS buffer, and 50 μl was added per well for detection of the bound TriNKETs or mAbs. Cells were incubated for 20 minutes on ice, then washed with FACS buffer. 50 μl of fixation buffer was added to each well, and cells were incubated for 10 minutes at room temperature. Cells were washed with FACS buffer and resuspended in FACS buffer for analysis with BD FACS Celesta SN #H66034400085, or BD FACS Celesta SN #H66034400160. Cells of interest were identified using FSC vs. SSC plot, and an appropriately shaped gate was drawn around the cells. Within the gated cells, doublet cells were removed by viewing FSC-H vs FSC-A plot. Within the single cell population, live cells were gated. Within the live gate, the mean fluorescence intensity (MFI) of each sample and the secondary-only control was calculated. Fold-over-background (FOB) was calculated as the ratio of test article MFI over secondary-only background MFI. Data were fit to a four-parameter non-linear regression curve using GraphPad Prism 7.0.

[3] = biological target: T1, human CLEC12A on cells (HL60, PL21, …); assay: flow cytometry, Ba/F3-hCLEC12A cells
Procedure: as §1

[4] = biological target: T2, recombinant human CLEC12A-His; assay: SPR screening, semi-purified
Procedure: Binding affinities of the 18 semi-purified TriNKETs for hCLEC12A were assessed by SPR in screening.

| EC50 [1] | FOB (fold over background) [1] | EC50 [2] | FOB (fold over background) [2] | EC50 [3] | FOB (fold over background) [3] | Kd [4] | koff [4] | kon [4] | Binder |
| --- | --- | --- | --- | --- | --- | --- | --- | --- | --- |
| 1.13 nM | 15 fold | 2.79 nM | 59 fold | 4.45 nM | 369 fold |  |  |  | hcFAE-A49.CLL1-Merus (Duobody TriNKET) (bispecific antibody, V domains shown, Duobody format; also called Duobody TriNKET based on CLL1 antibody from Merus) VH 1: EVQLVQSGAEVKKPGASVKVSCKASGYTFTSYYMHWVRQAPGQGLEWMGIINPSGGSTSYAQKFQGRVTMTRDTSTSTVYMELSSLRSEDTAVYYCARGNYGDEFDYWGQGTLVTVSS VL 1: not shown VH 2: EVQLVESGGGLVKPGGSLRLSCAASGFTFSSYSMNWVRQAPGKGLEWVSSISSSSSYIYYADSVKGRFTISRDNAKNSLYLQMNSLRAEDTAVYYCARGAPMGAAAGWFDPWGQGTLVTVSS VL 2: DIQMTQSPSSVSASVGDRVTITCRASQGISSWLAWYQQKPGKAPKLLIYAASSLQSGVPSRFSGSGSGTDFTLTISSLQPEDFATYYCQQGVSFPRTFGGGTKVEIK |
|  |  |  |  |  |  | 3.22 nM | 0.0013 s⁻¹ | 402000 M⁻¹ s⁻¹ | F3'-1292 (other, F3' TriNKET, scFv-Fc chain built from the general F3' description; semi-purified) QLQLQESGPGLVKPSETLSLTCTVSGFSLTNYGLHWIRQPPGKCLEWIGVIWSGGKTDYNPSLKSRVTISKDTSKNQFSLKLSSVQANDTAVYYCAKYDYDDSLDYWGQGTLVTVSSGGGGSGGGGSGGGGSGGGGSDIQMTQSPSSLSASVGDRVTITCHASQNINFWLSWYQQKPGKIPKLLIYEASNLHTGVPSRFSGSGSGTRFTLTISSLQPEDIATYYCQQSHSYPLTFGCGTKLEIKGSDKTHTCPPCPAPELLGGPSVFLFPPKPKDTLMISRTPEVTCVVVDVSHEDPEVKFNWYVDGVEVHNAKTKPREEQYNSTYRVVSVLTVLHQDWLNGKEYKCKVSNKALPAPIEKTISKAKGQPREPRVYTLPPCRDELTKNQVSLTCLVKGFYPSDIAVEWESNGQPENNYKTTPPVLVSDGSFTLYSKLTVDKSRWQQGNVFSCSVMHEALHNHYTQKSLSLSPG heavy: EVQLVESGGGLVKPGGSLRLSCAASGFTFSSYSMNWVRQAPGKGLEWVSSISSSSSYIYYADSVKGRFTISRDNAKNSLYLQMNSLRAEDTAVYYCARGAPIGAAAGWFDPWGQGTLVTVSSASTKGPSVFPLAPSSKSTSGGTAALGCLVKDYFPEPVTVSWNSGALTSGVHTFPAVLQSSGLYSLSSVVTVPSSSLGTQTYICNVNHKPSNTKVDKKVEPKSCDKTHTCPPCPAPELLGGPSVFLFPPKPKDTLMISRTPEVTCVVVDVSHEDPEVKFNWYVDGVEVHNAKTKPREEQYNSTYRVVSVLTVLHQDWLNGKEYKCKVSNKALPAPIEKTISKAKGQPREPQVCTLPPSRDELTENQVSLTCLVKGFYPSDIAVEWESNGQPENNYKTTPPVLDSDGSFFLYSWLTVDKSRWQQGNVFSCSVMHEALHNHYTQKSLSLSPG light: DIQMTQSPSSVSASVGDRVTITCRASQGISSWLAWYQQKPGKAPKLLIYAASSLQSGVPSRFSGSGSGTDFTLTISSLQPEDFATYYCQQGVSFPRTFGGGTKVEIKRTVAAPSVFIFPPSDEQLKSGTASVVCLLNNFYPREAKVQWKVDNALQSGNSQESVTEQDSKDSTYSLSSTLTLSKADYEKHKVYACEVTHQGLSSPVTKSFNRGEC |
|  |  |  |  |  |  | 2.79 nM | 0.00141 s⁻¹ | 504000 M⁻¹ s⁻¹ | F3'-1297 (other, As F3'-1292) QLQLQESGPGLVKPSETLSLTCTVSGFSLTNYGLHWIRQPPGKCLEWIGVIWSGGKTDYNPSLKSRVTISKDTSKNQFSLKLSSVQANDTAVYYCAKYDYDDSLDYWGQGTLVTVSSGGGGSGGGGSGGGGSGGGGSDIQMTQSPSSLSASVGDRVTITCHASQNINFWLSWYQQKPGKAPKLLIYEASNLHTGVPSRFSGSGSGTRFTLTISSLQPEDIATYYCQQSHSYPLTFGCGTKLEIKGSDKTHTCPPCPAPELLGGPSVFLFPPKPKDTLMISRTPEVTCVVVDVSHEDPEVKFNWYVDGVEVHNAKTKPREEQYNSTYRVVSVLTVLHQDWLNGKEYKCKVSNKALPAPIEKTISKAKGQPREPRVYTLPPCRDELTKNQVSLTCLVKGFYPSDIAVEWESNGQPENNYKTTPPVLVSDGSFTLYSKLTVDKSRWQQGNVFSCSVMHEALHNHYTQKSLSLSPG heavy: EVQLVESGGGLVKPGGSLRLSCAASGFTFSSYSMNWVRQAPGKGLEWVSSISSSSSYIYYADSVKGRFTISRDNAKNSLYLQMNSLRAEDTAVYYCARGAPIGAAAGWFDPWGQGTLVTVSSASTKGPSVFPLAPSSKSTSGGTAALGCLVKDYFPEPVTVSWNSGALTSGVHTFPAVLQSSGLYSLSSVVTVPSSSLGTQTYICNVNHKPSNTKVDKKVEPKSCDKTHTCPPCPAPELLGGPSVFLFPPKPKDTLMISRTPEVTCVVVDVSHEDPEVKFNWYVDGVEVHNAKTKPREEQYNSTYRVVSVLTVLHQDWLNGKEYKCKVSNKALPAPIEKTISKAKGQPREPQVCTLPPSRDELTENQVSLTCLVKGFYPSDIAVEWESNGQPENNYKTTPPVLDSDGSFFLYSWLTVDKSRWQQGNVFSCSVMHEALHNHYTQKSLSLSPG light: DIQMTQSPSSVSASVGDRVTITCRASQGISSWLAWYQQKPGKAPKLLIYAASSLQSGVPSRFSGSGSGTDFTLTISSLQPEDFATYYCQQGVSFPRTFGGGTKVEIKRTVAAPSVFIFPPSDEQLKSGTASVVCLLNNFYPREAKVQWKVDNALQSGNSQESVTEQDSKDSTYSLSSTLTLSKADYEKHKVYACEVTHQGLSSPVTKSFNRGEC |
|  |  |  |  |  |  | 5.16 nM | 0.0489 s⁻¹ | 9.48e+06 M⁻¹ s⁻¹ | F3'-1306 (other, As F3'-1292) DIQMTQSPSSLSASVGDRVTITCHASQNINFWLSWYQQKPGKAPKLLIYEASNLHTGVPSRFSGSGSGTRFTLTISSLQPEDIATYYCQQSHSYPLTFGCGTKLEIKGGGGSGGGGSGGGGSGGGGSQLQLQESGPGLVKPSETLSLTCTVSGFSLTNYGLHWIRQPPGKCLEWIGVIWSGGKTDYNPSLKSRVTISKDTSKNQFSLKLSSVQANDTAVYYCAKYDYDDSLDYWGQGTLVTVSSGSDKTHTCPPCPAPELLGGPSVFLFPPKPKDTLMISRTPEVTCVVVDVSHEDPEVKFNWYVDGVEVHNAKTKPREEQYNSTYRVVSVLTVLHQDWLNGKEYKCKVSNKALPAPIEKTISKAKGQPREPRVYTLPPCRDELTKNQVSLTCLVKGFYPSDIAVEWESNGQPENNYKTTPPVLVSDGSFTLYSKLTVDKSRWQQGNVFSCSVMHEALHNHYTQKSLSLSPG heavy: EVQLVESGGGLVKPGGSLRLSCAASGFTFSSYSMNWVRQAPGKGLEWVSSISSSSSYIYYADSVKGRFTISRDNAKNSLYLQMNSLRAEDTAVYYCARGAPIGAAAGWFDPWGQGTLVTVSSASTKGPSVFPLAPSSKSTSGGTAALGCLVKDYFPEPVTVSWNSGALTSGVHTFPAVLQSSGLYSLSSVVTVPSSSLGTQTYICNVNHKPSNTKVDKKVEPKSCDKTHTCPPCPAPELLGGPSVFLFPPKPKDTLMISRTPEVTCVVVDVSHEDPEVKFNWYVDGVEVHNAKTKPREEQYNSTYRVVSVLTVLHQDWLNGKEYKCKVSNKALPAPIEKTISKAKGQPREPQVCTLPPSRDELTENQVSLTCLVKGFYPSDIAVEWESNGQPENNYKTTPPVLDSDGSFFLYSWLTVDKSRWQQGNVFSCSVMHEALHNHYTQKSLSLSPG light: DIQMTQSPSSVSASVGDRVTITCRASQGISSWLAWYQQKPGKAPKLLIYAASSLQSGVPSRFSGSGSGTDFTLTISSLQPEDFATYYCQQGVSFPRTFGGGTKVEIKRTVAAPSVFIFPPSDEQLKSGTASVVCLLNNFYPREAKVQWKVDNALQSGNSQESVTEQDSKDSTYSLSSTLTLSKADYEKHKVYACEVTHQGLSSPVTKSFNRGEC |
|  |  |  |  |  |  | 1.34 nM | 0.00117 s⁻¹ | 874000 M⁻¹ s⁻¹ | F3'-1296 (other, As F3'-1292) QLQLQESGPGLVKPSETLSLTCTVSGFSLTNYGLHWIRQPPGKCLEWIGVIWSGGKTDYNPSLKSRVTISKDTSKNQFSLKLSSVQANDTAVYYCARYDYDDSLDYWGQGTLVTVSSGGGGSGGGGSGGGGSGGGGSDIQMTQSPSSLSASVGDRVTITCHASQNINFWLSWYQQKPGKIPKLLIYEASNLHTGVPSRFSGSGSGTRFTLTISSLQPEDIATYYCQQSHSYPLTFGCGTKLEIKGSDKTHTCPPCPAPELLGGPSVFLFPPKPKDTLMISRTPEVTCVVVDVSHEDPEVKFNWYVDGVEVHNAKTKPREEQYNSTYRVVSVLTVLHQDWLNGKEYKCKVSNKALPAPIEKTISKAKGQPREPRVYTLPPCRDELTKNQVSLTCLVKGFYPSDIAVEWESNGQPENNYKTTPPVLVSDGSFTLYSKLTVDKSRWQQGNVFSCSVMHEALHNHYTQKSLSLSPG heavy: EVQLVESGGGLVKPGGSLRLSCAASGFTFSSYSMNWVRQAPGKGLEWVSSISSSSSYIYYADSVKGRFTISRDNAKNSLYLQMNSLRAEDTAVYYCARGAPIGAAAGWFDPWGQGTLVTVSSASTKGPSVFPLAPSSKSTSGGTAALGCLVKDYFPEPVTVSWNSGALTSGVHTFPAVLQSSGLYSLSSVVTVPSSSLGTQTYICNVNHKPSNTKVDKKVEPKSCDKTHTCPPCPAPELLGGPSVFLFPPKPKDTLMISRTPEVTCVVVDVSHEDPEVKFNWYVDGVEVHNAKTKPREEQYNSTYRVVSVLTVLHQDWLNGKEYKCKVSNKALPAPIEKTISKAKGQPREPQVCTLPPSRDELTENQVSLTCLVKGFYPSDIAVEWESNGQPENNYKTTPPVLDSDGSFFLYSWLTVDKSRWQQGNVFSCSVMHEALHNHYTQKSLSLSPG light: DIQMTQSPSSVSASVGDRVTITCRASQGISSWLAWYQQKPGKAPKLLIYAASSLQSGVPSRFSGSGSGTDFTLTISSLQPEDFATYYCQQGVSFPRTFGGGTKVEIKRTVAAPSVFIFPPSDEQLKSGTASVVCLLNNFYPREAKVQWKVDNALQSGNSQESVTEQDSKDSTYSLSSTLTLSKADYEKHKVYACEVTHQGLSSPVTKSFNRGEC |
